This assay deals with mouse TNFR1 on L929 cells (mouse). As to the kind of experiment: cell-based or functional assay.

Turning to “anti-TNFR1 antibody MAB430 (R&D Systems)”, the ND50, modified L929 cytotoxicity assay without TNF-α (agonism) was 10 nM.

“anti-TNFR1 antibody AF-425-PB (R&D Systems)” gave an ND50, modified L929 cytotoxicity assay without TNF-α (agonism) of 0.1 nM.

The values above are taken from patent EP1841452B1.
